Experimental data from patent publication US20170306049A1 (YEDA RESEARCH AND DEVELOPMENT, published 2017).

B1: anti-HER3 mAb NG33 (antibody, V domains shown)
VH: DVQLQESGPGLVKPSQSLSLTCSVTGYSITSGFYWSWIRQFPGNKLEWMGYIAYDGTSNYNPSLKNRISITRDTSKNQFFLKLKSVTNEDTPTYYCARGGGYYGQLLDYWGQGTSVTVSS
VL: DARMTQSPSSLSASLGDRVTISCRASQDISNYLNWYQQKPDGTVKVLIYNTAKLHSGVPSRFSGSGSGTDYSLTISNLEQEDFATYFCQQGKTLPWTFGGGTKLELK
B2: anti-HER3 mAb NG140 (antibody, V domains shown)
VH: QVQLKESGPGLVKPSQSLSLTCSVTGYSITSGYYWNWIRQFPGNKLEWMGSIYYDGSNNYNPSLKNRISVTRDTSKNQFFLKLNSVTTEDTATYYCARDYDVGYAMDYWGQGASVTVSS
VL: DIVLTQSSSYLSVSLGGRVTITCKASDHINNWLAWYQQKPGNAPRLLISGATSLETGVPSRFSGSGSGKDYTLSITSLQTEDVATYYCQQYWSIPWTFGGGTKLEIK
B3: anti-HER3 mAb NG83 (antibody, V domains shown)
VH: QIQLVQSGPELKKRGETVKISCKASGYTFTNYGMNWVRQAPGKGLKCMGWINTYAGEPTYADDFKGRFAFSLDSSASTAYLQINNLKNEDMATYFCARGGITGAMDYWGQGTSVTVSS
VL: DVVMTQKTSSLSTSLGDRVTISCRASQDIRNYLNWYQQKPDGTVKLLIYYTSRLHSGVPSRFSGSGSGTDYSLTISDLEQEDIATYFCQQGNTLPWTFGGGTKLAIK
B4: mAb XC252 (antibody, V domains shown)
VH: EVQLQQSGAELVRPGVSVKISCKGSGYTFTDYAMHWVKQSHAKSLEWIGVISTYYGDPRDNQKFKGKATMTVDKSSSTAYMELARLTSEDSAIYYCARGDYDWYAIDYWGQGTSVTVSS
VL: DVVMTQTPLSLPVSLGDQASISCRSSQSIVHSDGNTYLEWYLQKPGQSPKLLIYKVSNRFSGVPDRFSGSGSGTDFTLKISRVEAEDLGVYYCFQGSHVPPTFGGGTKLEIK
notes: also called XC252-K2 (Lumi4 Tb cryptate labelled)

Columns and labels:
[1] = target: T1, HER3 fused with SNAP-Tag, expressed on HEK 293 cells and labelled with Lumi4-Tb (human, UniProt P21860 20-1342, SNAP-tag labelled with BG-Lumi4(Tb)); assay: Tag-lite FRET, d2-labelled mAb on HEK293 cells with Lumi4(Tb)-labelled HER3-SNAP-Tag
T1 construct: whole, on cells; the parts follow the printed name HER3-SNAP-Tag; also called HER3-SNAP-Tag; HEK293-HER3-SNAP-Lumi4-Tb cells; not shown: SNAP-Tag (CISbio Tag-lite plasmid)
Description: FIGS. 3A-E show Kd determination of mAb to HER3 using the Tag-Lite technology. Cells are transfected with HER3-SNAP-Tag and labeled with BG-Lumi4(Tb), a SNAP-tag subtract. Following incubation with increasing concentrations of indicated d2 labeled mAb directed to HER3, the Kd was determined from the binding curve fitting. The binding curve was obtained by measuring the FRET between the donor Lumi4(Tb) and the acceptor d2-dye. The unspecific binding was evaluated by adding an excess of unlabelled Ab.
TABLE 2 Kd determination of indicated mAb to HER3 using the Tag- Lite technology. Cells were transfected with HER3-SNAP- Tag and labeled withBG-Lumi4(Tb), a SNAP-tag subtract. Following incubation with increasing concentrations of indicated d2 labeled mAb directed to HER3, the Kd was determined from the binding curve fitting. The binding curve was obtained by measuring the FRET between the donor Lumi4(Tb) and the acceptor d2-dye.

[2] = target: T2, IgB3 (recombinant HER3 extracellular domain fused to a human IgG Fc domain) (human, UniProt P21860 20-643); assay: ELISA, IgB3-coated microplate, purified mAb, HRP anti-mouse IgG
T2 construct: extracellular domain; Secreted from HEK-293 cells, purified on protein G / protein A; not shown: Fc domain of a human IgG1
Description: FIGS. 2A-D show monoclonal antibody targeting HER3 extracellular domain. (FIG. 2A) 96 well-plates were coated with 1.5 μg/ml of IgB3, blocked with PBS-BSA (1% weight/vol) and incubated for 1 h with various concentrations of purified mAbs under gentle shaking at RT. After washing, a second 1 h-incubation with HRP-labelled anti-mouse IgG was performed and followed by incubation with 2,2′-azino-bis (3-ethylbenzothiazoline-6-sulfonic acid) for 10 min. The OD at 415 nm was measured using by an ELISA microplate reader. […] After 2 washes, the cells were incubated for 1 h at 4° C. (in the dark) with a secondary anti-mouse IgG Ab coupled to AlexaFluor 488. The fluorescence intensity (F.I.) was measured on the LSRII flow cytometer. […] After 4 washes, the content bound to the beads was eluted and analyzed by immunoblotting (IB) with an antibody to HER3/ErbB-3.
The comparison of the capacity of purified mAbs to bind with IgB3 was evaluated using ELISA (FIG. 2A). […] Each antibody was labeled with the d2-dye, and by measuring the binding of the labeled-mAb to cells presenting Lumi4(Tb)-labeled HER3 using FRET, the KD was determined and reported in Table 2, below. The values obtained correlate with the different patterns of HER3 binding determined by FACS (FIGS. 2B and 2C), although they are distinct from the patterns of IgB3 binding determined using ELISA (FIG. 2A).

[3] = target: T1, HER3 fused with SNAP-Tag, expressed on …; assay: Tag-lite FRET KD of Table 2, compared with the other mAbs
EGFR (ErbB1/HER1) = target: T3, EGFR (ErbB1/HER1) (human, UniProt P00533 25-1210); assay: flow cytometry on NIH/3T3 cells presenting EGFR alone
T3 construct: whole, on cells; also called NIH/3T3-EGFR cells; NIH/3T3-R1
Description: (§1) FIGS. 4A-B show specificity of monoclonal antibodies directed to HER3. (FIG. 4A) NIH/3T3-EGFR, -HER2, -HER3 or -EGFR/HER4 cells were incubated with 25 μg/ml of each mAb for 1.5 h at 4° C. After 2 washes, the cells were incubated for 1 h at 4° C. (in the dark) with a secondary anti-mouse IgG Ab coupled to AlexaFluor 488. The fluorescence intensity (F.I.) was measured on the LSRII flow cytometer. The negative control is made using an irrelevant mouse IgG as primary Ab. The positive control are the following mAb 565 (anti-EGFR), mAb L26 (anti-HER2), mAb 9F7 (anti-HER3), mAb 77 (anti-HER4). (FIG. 4B) The panel presents the geometric mean and the CV of the fluorescence intensity.

HER2 (ErbB2) = target: T4, HER2 (ErbB2) (human, UniProt P04626 23-1255); assay: flow cytometry on NIH/3T3 cells presenting HER2 alone
T4 construct: whole, on cells; also called NIH/3T3-HER2 cells; NIH/3T3-R2
Description: as §1

HER4 (ErbB4) = target: T5, HER4 (ErbB4) (human, UniProt Q15303 26-1308); assay: flow cytometry on NIH/3T3 cells presenting EGFR and HER4
T5 construct: whole, on cells; also called NIH/3T3-EGFR/HER4 cells; NIH/3T3-R1R4
Description: as §1

T1 sequence (P21860 20-1342): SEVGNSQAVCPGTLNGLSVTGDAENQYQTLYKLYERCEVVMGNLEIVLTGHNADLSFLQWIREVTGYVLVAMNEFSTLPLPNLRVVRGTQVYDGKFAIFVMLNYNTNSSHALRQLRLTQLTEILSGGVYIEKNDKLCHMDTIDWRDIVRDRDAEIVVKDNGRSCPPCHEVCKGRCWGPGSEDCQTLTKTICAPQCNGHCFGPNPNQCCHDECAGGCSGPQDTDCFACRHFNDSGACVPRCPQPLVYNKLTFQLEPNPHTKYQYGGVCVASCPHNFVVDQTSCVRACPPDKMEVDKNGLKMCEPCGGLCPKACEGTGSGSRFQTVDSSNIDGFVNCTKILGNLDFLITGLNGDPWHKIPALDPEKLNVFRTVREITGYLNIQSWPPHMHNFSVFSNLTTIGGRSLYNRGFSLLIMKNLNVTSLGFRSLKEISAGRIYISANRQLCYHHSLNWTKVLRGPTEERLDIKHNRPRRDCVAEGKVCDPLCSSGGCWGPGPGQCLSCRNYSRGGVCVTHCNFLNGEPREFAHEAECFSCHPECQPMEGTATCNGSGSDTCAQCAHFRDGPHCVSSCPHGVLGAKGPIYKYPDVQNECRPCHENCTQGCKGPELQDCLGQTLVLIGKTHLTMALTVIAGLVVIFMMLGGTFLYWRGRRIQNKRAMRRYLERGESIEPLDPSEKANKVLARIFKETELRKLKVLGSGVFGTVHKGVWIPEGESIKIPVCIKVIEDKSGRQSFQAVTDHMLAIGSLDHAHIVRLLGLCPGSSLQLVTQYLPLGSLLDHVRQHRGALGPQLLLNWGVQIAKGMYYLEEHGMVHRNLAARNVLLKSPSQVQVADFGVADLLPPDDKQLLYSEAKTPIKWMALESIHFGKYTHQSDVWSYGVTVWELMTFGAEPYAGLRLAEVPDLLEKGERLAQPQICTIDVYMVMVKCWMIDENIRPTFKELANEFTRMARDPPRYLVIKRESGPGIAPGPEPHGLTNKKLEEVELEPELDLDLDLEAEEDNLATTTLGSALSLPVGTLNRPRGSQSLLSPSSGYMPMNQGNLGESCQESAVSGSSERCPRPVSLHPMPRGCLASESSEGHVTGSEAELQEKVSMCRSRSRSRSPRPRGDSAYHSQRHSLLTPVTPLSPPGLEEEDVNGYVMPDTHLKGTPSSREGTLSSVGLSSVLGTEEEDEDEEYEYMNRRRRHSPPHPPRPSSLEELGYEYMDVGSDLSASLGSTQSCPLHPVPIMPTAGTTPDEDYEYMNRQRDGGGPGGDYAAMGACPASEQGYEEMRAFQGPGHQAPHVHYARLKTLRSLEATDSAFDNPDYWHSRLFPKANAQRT
T2 sequence (P21860 20-643): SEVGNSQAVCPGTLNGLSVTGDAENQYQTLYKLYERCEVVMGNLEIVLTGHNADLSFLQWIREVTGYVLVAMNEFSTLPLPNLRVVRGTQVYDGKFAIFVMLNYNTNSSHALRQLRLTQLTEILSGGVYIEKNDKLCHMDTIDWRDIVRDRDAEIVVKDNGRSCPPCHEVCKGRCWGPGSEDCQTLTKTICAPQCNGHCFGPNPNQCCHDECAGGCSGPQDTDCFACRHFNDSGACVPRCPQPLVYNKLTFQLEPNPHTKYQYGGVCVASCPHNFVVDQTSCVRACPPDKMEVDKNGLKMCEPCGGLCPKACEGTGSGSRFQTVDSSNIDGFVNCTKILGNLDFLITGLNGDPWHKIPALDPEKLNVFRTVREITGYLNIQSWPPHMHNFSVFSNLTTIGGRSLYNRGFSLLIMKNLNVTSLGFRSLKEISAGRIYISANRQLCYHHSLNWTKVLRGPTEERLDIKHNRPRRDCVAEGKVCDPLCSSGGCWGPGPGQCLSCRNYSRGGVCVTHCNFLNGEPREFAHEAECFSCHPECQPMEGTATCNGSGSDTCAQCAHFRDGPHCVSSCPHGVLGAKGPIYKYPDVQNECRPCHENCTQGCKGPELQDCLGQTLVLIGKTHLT
T5 sequence (Q15303 26-1308): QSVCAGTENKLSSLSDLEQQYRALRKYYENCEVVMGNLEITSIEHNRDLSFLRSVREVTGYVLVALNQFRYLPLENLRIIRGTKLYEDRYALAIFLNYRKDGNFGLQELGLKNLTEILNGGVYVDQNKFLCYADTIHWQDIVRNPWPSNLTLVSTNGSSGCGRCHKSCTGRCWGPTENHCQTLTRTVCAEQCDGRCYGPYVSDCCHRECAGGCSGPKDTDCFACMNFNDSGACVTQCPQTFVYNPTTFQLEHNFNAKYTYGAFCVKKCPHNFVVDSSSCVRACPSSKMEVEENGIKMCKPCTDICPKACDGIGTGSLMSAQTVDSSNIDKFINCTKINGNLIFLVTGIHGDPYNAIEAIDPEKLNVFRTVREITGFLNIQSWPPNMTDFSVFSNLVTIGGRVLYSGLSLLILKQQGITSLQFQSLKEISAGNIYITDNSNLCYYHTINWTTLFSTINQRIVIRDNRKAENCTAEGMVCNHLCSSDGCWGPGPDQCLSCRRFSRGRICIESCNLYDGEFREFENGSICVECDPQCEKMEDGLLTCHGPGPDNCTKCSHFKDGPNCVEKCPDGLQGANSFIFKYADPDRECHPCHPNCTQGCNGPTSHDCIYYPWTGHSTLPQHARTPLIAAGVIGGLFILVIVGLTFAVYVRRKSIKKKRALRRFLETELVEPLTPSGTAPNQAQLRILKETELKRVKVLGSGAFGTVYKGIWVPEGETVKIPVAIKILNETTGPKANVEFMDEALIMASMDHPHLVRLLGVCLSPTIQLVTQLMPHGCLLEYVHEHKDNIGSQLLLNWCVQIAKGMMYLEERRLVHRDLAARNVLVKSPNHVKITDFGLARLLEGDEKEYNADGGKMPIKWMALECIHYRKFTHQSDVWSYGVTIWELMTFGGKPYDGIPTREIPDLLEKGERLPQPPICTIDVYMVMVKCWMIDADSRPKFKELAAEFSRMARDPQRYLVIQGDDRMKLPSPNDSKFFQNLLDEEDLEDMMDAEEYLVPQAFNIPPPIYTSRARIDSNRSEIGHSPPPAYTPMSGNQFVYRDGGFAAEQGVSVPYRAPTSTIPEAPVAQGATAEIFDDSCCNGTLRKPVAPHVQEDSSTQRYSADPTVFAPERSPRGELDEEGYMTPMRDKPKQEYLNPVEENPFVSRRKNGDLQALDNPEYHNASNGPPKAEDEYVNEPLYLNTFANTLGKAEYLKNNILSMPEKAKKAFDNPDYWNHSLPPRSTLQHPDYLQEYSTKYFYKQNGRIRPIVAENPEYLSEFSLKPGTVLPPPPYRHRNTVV

Binder | Kd [1] [nM] | EC50 [2] [nM] | fold weaker affinity than the other mAbs [3] [fold] | binding result (EGFR (ErbB1/HER1)) | binding result (HER2 (ErbB2)) | binding result (HER4 (ErbB4))
B1 | 2.96 |  |  |  |  | 
B2 | 6.12 | 16.8 |  |  |  | 
B3 | > 14 |  | 10 |  |  | 
B4 | 1.09 | 0.21 |  | no binding (tested: 25 µg/ml) | no binding (tested: 25 µg/ml) | no binding (tested: 25 µg/ml)
